In the series the target is T1, Zur (Acinetobacter baumannii ATCC 17978, UniProt V5VHH0 1-161).
T1 sequence: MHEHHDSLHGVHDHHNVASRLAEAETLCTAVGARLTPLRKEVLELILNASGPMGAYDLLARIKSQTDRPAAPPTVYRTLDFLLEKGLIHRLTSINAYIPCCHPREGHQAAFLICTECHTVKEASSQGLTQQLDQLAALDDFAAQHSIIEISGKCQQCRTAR
Briefly: EMSA; 100 uM ZnCl2; Zur 0-2500 nM, DNA 250 nM; 20 mM Tris-HCl pH 8.0, 50 mM KCl, 1 mM DTT, 5% glycerol, 100 uM ZnCl2, 20 min at room temperature; 4% polyacrylamide gel. Particulars: protein: recombinant; tags: N-terminal 6xHis (pET15b), removed by thrombin; chain copies: 2; label: none (SYBR green stain); blunt. Background: Mobility shift assays separate free from complexed probe on a gel.

B1: znuA intragenic negative control (dsDNA)
DNA 1: GTTACAAAAATACCTAAGATTAATCGAAT
DNA 2: ATTCGATTAATCTTAGGTATTTTTGTAAC
For B1, the binding result is given as “no binding”.
